Reference: PMC3602430, “Identification of a Missing Link in the Evolution of an Enzyme into a Transcriptional Regulator” (PLoS ONE, 2013)

Assays:
[1] = target: T1, BzdR (CBzdR, C-terminal effector-binding domain); test: intrinsic protein fluorescence titration, one-site model; parameters: species or system Azoarcus sp. CIB
T1 construct: His6-CBzdR, residues 131–298

[2] = target: NBzdR, N-terminal DNA-binding domain of BzdR (Azoarcus sp. CIB); test: AUC; sedimentation equilibrium of the purified proteins in solution, data fitted to dimer and monomer species; sedimentation velocity showed single species (1.8 and 2.3 S); conditions not shown
[3] = target: NBzdRL, N-terminal domain of BzdR fused to its linker region (Azoarcus sp. CIB); test: as above
[4] = target: Q1 chimera (NBzdRL fused to E. coli shikimate kinase I) (Azoarcus sp. CIB | E. coli) (UniProt P0A6D7); test: AUC; sedimentation velocity of purified His6-tagged proteins, c(s) distribution; s-value did not change significantly over 1-30 µM protein
[5] = substrate: O=C(O)C1=C[C@@H](O)[C@@H](O)[C@H](O)C1; test: coupled pyruvate kinase/lactate dehydrogenase shikimate kinase assay (Km); type: biochemical, Escherichia coli; conditions: Mg2+, ATP

CC(C)(COP(=O)(O)OP(=O)(O)OC[C@H]1O[C@@H](n2cnc3c(N)ncnc32)[C@H](O)[C@@H]1OP(=O)(O)O)[C@@H](O)C(=O)NCCC(=O)NCCSC(=O)c1ccccc1 [benzoyl-CoA]
Kd [1]: 203 ± 35 µM

NBzdR, N-terminal DNA-binding domain of BzdR (domain or fragment)
stoichiometry N [2]: 2

NBzdRL, N-terminal domain of BzdR fused to its linker region (domain or fragment)
stoichiometry N [3]: 2

Q1 chimera (NBzdRL fused to E. coli shikimate kinase I) (from UniProt P0A6D7 1-173)
stoichiometry N [4]: 2

B1: shikimate kinase I (SKI) (Escherichia coli K-12) (protein)
chain: AEKRNIFLVGPMGAGKSTIGRQLAQQLNMEFYDSDQEIEKRTGADVGWVFDLEGEEGFRDREEKVINELTEKQGIVLATGGGSVKSRETRNRLSARGVVVYLETTIEKQLARTQRDKKRPLLHVETPPREVLEALANERNPLYEEIADVTIRTDDQSAKVVANQIIHMLESN
notes: His6-SKI
Km [5]: 400 µM
